{"source": "paper PMC2854237", "about": "(Insect biochemistry and molecular biology, 2010)", "key": {"[1]": {"molecular_target": "D. yakuba ovulin C-terminal fragment, 6xHis-tagged (D. yakuba)", "assay": "cross-linking"}, "[2]": {"molecular_target": "D. pseudoobscura ovulin C-terminal fragment, 6xHis-tagged (D. pseudoobscura)", "assay": "cross-linking"}, "[3]": {"molecular_target": "D. melanogaster ovulin (Acp26Aa), endogenous in male accessory glands (D. melanogaster (endogenous in male accessory glands))", "assay": "non-reducing SDS-PAGE and Western blot of SDS-stable complexes"}, "[4]": {"molecular_target": "D. melanogaster ovulin (Acp26Aa), endogenous in male accessory glands (D. melanogaster (endogenous in male accessory glands))", "assay": "non-reducing SDS-PAGE and Western blot of SDS-stable complexes", "remark": "listed apart in the source"}, "cross-linking": {"molecular_target": "the molecule itself", "assay": "cross-linking"}, "[5]": {"molecular_target": "the molecule itself", "assay": "non-reducing SDS-PAGE and Western blot of SDS-stable complexes"}}, "note": "Like-named read-outs stand apart in the source and are kept apart here."}
{"molecule": "D. yakuba ovulin C-terminal fragment, 6xHis-tagged (domain or fragment)", "values": [{"measurement": "stoichiometry N", "setting": "[1]", "result": 2}]}
{"molecule": "D. pseudoobscura ovulin C-terminal fragment, 6xHis-tagged (domain or fragment)", "values": [{"measurement": "stoichiometry N", "setting": "[2]", "result": 2}]}
{"molecule": "D. melanogaster ovulin (Acp26Aa), endogenous in male accessory glands (natural protein)", "values": [{"measurement": "stoichiometry N", "setting": "[3]", "result": 2}, {"measurement": "stoichiometry N", "setting": "[4]", "result": 2}]}
{"molecule": "NVRNTYRNKYLTLLKELSQKINNEIAKVATDVPTETNPSQGNLPTL (domain or fragment, UniProt P10333 219-264, looked up)", "note": "[Wild-type D. melanogaster ovulin C45 (C-terminal fragment), 6xHis- and Xpress-tagged]", "values": [{"measurement": "stoichiometry N", "setting": "cross-linking", "result": 2}]}
{"molecule": "D. simulans ovulin (putative ortholog), endogenous in male accessory glands (natural protein, UniProt P33737 19-255, looked up) NCDGEHQLDSSMDLKSDSTKSAVLKNVAPKNDATQAEIAKDDVALKSGKKGDYVMDIDVCTMPLDDYPINNSKSRKNSSTLPSQILTDKPNQGSNQIALKALKHRLLMEQNNNLFLRNHSVSLMNEIEARKTDIIQARQLNIDLELELEALKRKLSEMNAQNARKPTKSCKKRPSKDIAPPANQLQEVIVKNTYRNKYLTLLTQLAQKINYEIANVNNPATDVPTGKSPSEGNPSTT", "values": [{"measurement": "stoichiometry N", "setting": "[5]", "result": 2}]}
{"molecule": "D. simulans ovulin C-terminal fragment, 6xHis-tagged (domain or fragment, UniProt P33737 156-255, looked up) RQLNIDLELELEALKRKLSEMNAQNARKPTKSCKKRPSKDIAPPANQLQEVIVKNTYRNKYLTLLTQLAQKINYEIANVNNPATDVPTGKSPSEGNPSTT", "values": [{"measurement": "stoichiometry N", "setting": "cross-linking", "result": 2}]}
